The series is described as follows: self-splicing fitness, log relative to wild type (ln ratio); higher = more splicing; Tetrahymena group I intron in knt gene, E. coli kanamycin selection, DiMSum; sequences stand for … in CUCUCU…GGAGGGAAAAGUUAUCAGGCAUGCACCUGGUAGCUAGUCUUUAAACCAAUAGAUUGCAUCGGUUUAAAAGGCAAGACCGUCAAAUUGCGGGAAAGGGGUCAACAGCCGUUCAGUACCAAGUCUCAGGGGAAACUUUGAGAUGGCCUUGCAAAGGGUAUGGUAAUAAGCUGACGGACAUGGUCCUAACCACGCAGCCAAGUCCUAAGUCAACAGAUCUUCUGUUGAUAUGGAUGCAGUUCACAGACUAAAUGUCGGUCGGGGAAGAUGUAUUCUUCUCAUAAGAUAUAGUCGGACCUCUCCUUAAUGGGAGCUAGCGGAUGAAGUGAUGCAACACUGGAGCCGCUGGGAACUAAUUUGUAUGCGAAAGUAUAUUGAUUAGUUUUGGAGUACUCGUGGUCG
The procedure, abridged:
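Library with all eight P1ex-region intron nucleotides randomised, intron inside the knt kanamycin-resistance gene on pET-22b(+), in E. coli BL21(DE3). Cells grew overnight at 37°C or 30°C on LB agar with or without 25 μg/mL kanamycin (plus 100 μg/mL carbenicillin, 50 μM IPTG, 0.2% rhamnose), in six replicate transformations. Pooled colonies were amplicon-sequenced on Illumina HiSeq 2500. DiMSum fitness is the error-weighted combination of wild-type-normalised replicate fold changes, kanamycin versus none.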

± gives the uncertainty stated by the source.

In the case of UGGAAGCAAUAUUACGAUUG, the “self-splicing fitness (ln)” value (30 °C) was -1.76 ± 0.12 and the “self-splicing fitness (ln)” value (37 °C) was -0.362 ± 0.12. The matching figures for AGGAAGCAAUAUUACGUUUC: -3.65 ± 0.33 and -1.86 ± 0.36. The matching figures for ACACAGCAAUAUUACGUCCA: -1.09 ± 0.089 and -0.474 ± 0.096. For AGUGAGCAAUAUUACGCGAG, the “self-splicing fitness (ln)” value (30 °C) was -2.91 ± 0.49.

ACGAAGCAAUAUUACGGAUC: the “self-splicing fitness (ln)” value by setting is: (30 °C) -3.59 ± 0.12; (37 °C) -1.47 ± 0.096. The matching figures for ACACAGCAAUAUUACGCAAG: -1.7 ± 0.1 and -0.825 ± 0.11. Consider UUCAAGCAAUAUUACGUACC, for which the “self-splicing fitness (ln)” value (37 °C) is -1.69 ± 0.2.

As for UACAAGCAAUAUUACGUACU, the “self-splicing fitness (ln)” value by setting is: (30 °C) -2.71 ± 0.14; (37 °C) -1.45 ± 0.13. The corresponding values for GGACAGCAAUAUUACGGACU are -1.01 ± 0.079 and -0.461 ± 0.09. Consider CAGUAGCAAUAUUACGCUCC, for which the “self-splicing fitness (ln)” value (37 °C) is -1.31 ± 0.4. GAACAGCAAUAUUACGUGAG: the “self-splicing fitness (ln)” value is, setting by setting: (30 °C) -0.394 ± 0.031; (37 °C) -0.235 ± 0.053.

Take AGACAGCAAUAUUACGCCCC: the “self-splicing fitness (ln)” value was -0.804 ± 0.24 (30 °C) and 0.31 ± 0.26 (37 °C). Turning to GAACAGCAAUAUUACGUUUU, the “self-splicing fitness (ln)” value is, setting by setting: (30 °C) -3.06 ± 0.083; (37 °C) -2.25 ± 0.11. The corresponding values for AAUAAGCAAUAUUACGUGGU are -3.77 ± 0.17 and -2.63 ± 0.14. The corresponding values for AUGUAGCAAUAUUACGGGGU are -2.77 ± 0.23 and -3.12 ± 0.3. The matching figures for UUAGAGCAAUAUUACGUUUU: -3.39 ± 0.32 and -2.3 ± 0.27.

Regarding GUGAAGCAAUAUUACGAUUU, the “self-splicing fitness (ln)” value (30 °C) was -0.586 ± 0.051 and the “self-splicing fitness (ln)” value (37 °C) came to 0.316 ± 0.091.

CGUAAGCAAUAUUACGGCGA: the “self-splicing fitness (ln)” value runs as follows: (30 °C) -2.31 ± 0.2; (37 °C) -2.02 ± 0.25.

GCCGAGCAAUAUUACGCGAA: the “self-splicing fitness (ln)” value is -1.84 ± 0.12 (30 °C) and -1.34 ± 0.17 (37 °C).

Regarding AACCAGCAAUAUUACGCAGU, the “self-splicing fitness (ln)” value is, setting by setting: (30 °C) -2.6 ± 0.11; (37 °C) -1.35 ± 0.11. The matching figures for GCCAAGCAAUAUUACGGGAG: -3.55 ± 0.19 and -1.46 ± 0.13. The matching figures for UGCUAGCAAUAUUACGUUGU: -2.59 ± 0.17 and -3.8 ± 0.34.

With CUUUAGCAAUAUUACGGCCG, the “self-splicing fitness (ln)” value is, setting by setting: (30 °C) -0.432 ± 0.19; (37 °C) -0.348 ± 0.29. The corresponding values for ACCCAGCAAUAUUACGGGUU are -4.18 ± 0.12 and -2.84 ± 0.13.

Regarding GAGCAGCAAUAUUACGAUAC, the “self-splicing fitness (ln)” value is, setting by setting: (30 °C) -1.61 ± 0.12; (37 °C) -1.45 ± 0.15.

On to GUAUAGCAAUAUUACGACUA, for which the “self-splicing fitness (ln)” value is -0.438 ± 0.21 (30 °C) and 0.00698 ± 0.23 (37 °C). The corresponding values for AAGCAGCAAUAUUACGCACG are -1.15 ± 0.079 and -0.574 ± 0.095.

Turning to UGCCAGCAAUAUUACGAAAA, the “self-splicing fitness (ln)” value is, setting by setting: (30 °C) -2 ± 0.17; (37 °C) -1.24 ± 0.14. The corresponding values for CCCGAGCAAUAUUACGACGG are -3.44 ± 0.17 and -3.49 ± 0.27. The matching figures for CGAGAGCAAUAUUACGUGAA: -3.24 ± 0.2 and -2.44 ± 0.29. On to GUCCAGCAAUAUUACGAGAA, for which the “self-splicing fitness (ln)” value was -0.724 ± 0.14 (30 °C) and -0.763 ± 0.14 (37 °C). The corresponding values for ACUUAGCAAUAUUACGUAGC are -2.76 ± 0.12 and -1.58 ± 0.13.

For GGCGAGCAAUAUUACGGAAG, the “self-splicing fitness (ln)” value (30 °C) was -4.21 ± 0.3 and the “self-splicing fitness (ln)” value (37 °C) was -1.04 ± 0.2.

Consider GGGUAGCAAUAUUACGUUGG, for which the “self-splicing fitness (ln)” value was -3.28 ± 0.28 (30 °C) and -2.14 ± 0.32 (37 °C).

Take CAUUAGCAAUAUUACGUACC: the “self-splicing fitness (ln)” value runs as follows: (30 °C) -3.96 ± 0.21; (37 °C) -1.28 ± 0.13. The matching figures for CUAGAGCAAUAUUACGUAUU: -3.42 ± 0.17 and -3.03 ± 0.26. The matching figures for CAUAAGCAAUAUUACGACUA: -1.94 ± 0.095 and -0.427 ± 0.078.

Turning to UCUUAGCAAUAUUACGCACA, the “self-splicing fitness (ln)” value runs as follows: (30 °C) -1.04 ± 0.22; (37 °C) -0.879 ± 0.23.
